Test [1] deals with T1, factor XIa/Ca2+ (Homo sapiens, UniProt P03951).
T1 construct: purchased Enzyme Research Laboratories (South Bend, Ind.)
The test is described as follows: activation of factor IX mutants by factor XIa/Ca2+ (SDS gel). The class given is biochemical. The settings on record: analyzed by SDS gel electrophoresis. The method, then:
The rates of activation of the protease domain factor IX mutants by VIIa/TF and by Factor Xla/Ca^2+ was also determined, under conditions described in Mathur et al., 1997, supra, either by VIIa/TF/Ca^2+ or by factor Xla/Ca^2+. The rates of the mutants were similar to that of IXNP as analyzed by SDS gel electrophoresis.
Various DEGR-ck-inhibited factor IXa proteins were prepared for these experiments as follows. IXNP, IXWT, and each mutant factor IX at 200 μg/ml was activated by factor XIa (2 μg/ml) for 90 min. in TBS, pH 7.4 (0.05 M Tris, 0.15 M NaCl, pH 7.4) containing 5 mM Ca^2+. […] DEGR-IXaNP, DEGR-IXaWT, and various DEGR-IXa mutant proteins were prepared as described in Mathur et al., 1997, supra, and free DEGR-ck was removed as described in Sabharwal et al., 1995, supra and Krishnaswamy, 1992, J. Biol. Chem. 267, 23696–23706.

Test [2] addresses mouse monoclonal antibody (mAb) that inhibits the interaction of factor IXa with factor VIIIa. In words: binding of IX proteins to mAb that interferes with IXa:VIIIa interaction (coagulant based / competition assay).
Excerpt: The ability of the IX mutant proteins to bind to a mAb (Bajaj et al., 1985, supra) which interferes with the interaction of IXa and VIIIa was studied using a coagulant based assay as described in Usharani et al., 1985, J. Clin. Invest.
The subject of test [3] is Factor IX deficient plasma. The test is described as follows: coagulant activity of XIa-activated IXa proteins. In kind it is biochemical.
The target of test [4] is T2, factor X (Homo sapiens, UniProt P00742). The test is described as follows: factor X activation in complete intrinsic Tenase system (IXa, Ca2+, phospholipid, VIIIa). Conditions: 70 pM VIIIa, 0.5 nM IXa, 15 nM X, phospholipid present. The class given is biochemical. Further details: Normal human plasma factor IX (IXNP) and factor X were isolated as described in Bajaj and Birktoft; from tissue; host or cells: human plasma (factor X); factor VIII obtained from Dr. Leon Hoyer, American Red Cross. The method, then: (§1) The ability of each activated mutant to activate factor X in the presence and absence of phospholipid and factor VIIIa was determined as follows. The activation was carried out at 37° C. in a 50 μl reaction volume, in TBS/BSA pH 7.4, for various time periods. At the end of the incubation time period, each reaction mixture received 1 μl of 0.5 M EDTA to stop further generation of factor Xa. A 40 μL aliquot was then added to 0.1 ml quartz cuvette containing S-2222 in 75 μL of TBS/BSA, pH 7.4. The final concentration of S-2222 was 100 μM. The p-nitroaniline release was measured continuously (ΔA405/min) for up to 20 min (Sabharwal et al., 1995 supra; Sabharwal et al., 1997, supra). Factor Xa generated was calculated from a standard curve constructed using factor Xa prepared from insolubilized Russell's viper venom.
(§2) Factor X activation measurements were made under four experimental regimes. In one, Ca^2+ and phospholipid were present. In this system activation was carried out for 5–15 minutes and the concentration of each IXa protein was 20 nM, phospholipid was 25 μM, and factor X was 100 nM. In the second regime, Ca^2+, phospholipid and factor VIIIa were present. […] In the third regime, only Ca^2+ was present. Here, activation was carried out for 2–20 min and concentration of each IXa protein was 400 nM and factor X was 1 μM. Finally, in the fourth regime, Ca^2+ and VIIIa were present. Here, activation was carried out for 15–120 sec and the concentration of each IXa protein was 2 μM, VIIIa was 14 nM, and factor X was 400 nM.
(§3) In all of the above factor X activation experiments, the incubation times chosen were those in which the factor Xa generated was always less than 10 nM. This precautionary measure was taken to prevent activation of factor X by the generated factor Xa (see, e.g., Link. and Castellino, 1982, Arch Biochem. Biophys. 215, 215–221). Further, in those incubation mixtures which contained […], control experiments were also performed in which factor VIIIa was omitted. […] In the presence of factor VIIIa, 10 μM phospholipid was used based upon previous observations (Mathur et al., 1997, supra; van Dieijen et al., 1981, J. Biol. Chem. 256, 3433–3442). The concentrations of factor X selected for each set of reaction conditions are those which are below or at the Km values (van Dieijen et al., supra; Fay and Koshibu, 1998, J Biol. Chem. 273, 19049–19054). In this region of the Michaelis-Menton curve, the rate of formation of factor Xa is proportional to the substrate factor X and therefore to the affinity of the factor IXa enzyme for factor X.
Next, the activation of factor X in a complete intrinsic Tenase system (IXa, Ca^2+, phospholipid, VIIIa) was studied.
Target sequence in this assay (P00742 183-488 limits assumed, one chain of several): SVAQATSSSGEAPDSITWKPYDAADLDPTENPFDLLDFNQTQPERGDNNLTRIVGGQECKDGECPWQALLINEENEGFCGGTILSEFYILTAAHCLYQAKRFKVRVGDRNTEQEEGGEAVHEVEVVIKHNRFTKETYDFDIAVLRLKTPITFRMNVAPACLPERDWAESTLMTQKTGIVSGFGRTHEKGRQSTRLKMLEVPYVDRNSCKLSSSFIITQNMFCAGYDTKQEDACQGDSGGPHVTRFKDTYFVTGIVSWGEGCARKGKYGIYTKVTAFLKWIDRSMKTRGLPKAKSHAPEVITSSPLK
Target sequence in this assay (P00742 41-179 limits assumed, one chain of several): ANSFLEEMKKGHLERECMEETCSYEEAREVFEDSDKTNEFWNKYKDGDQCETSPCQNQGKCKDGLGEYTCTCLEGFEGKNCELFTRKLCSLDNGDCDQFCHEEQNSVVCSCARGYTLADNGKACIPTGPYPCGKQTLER

The target in test [5] is T2, factor X. The test is described as follows: factor X activation by IXa proteins, Ca2+ and VIIIa, no phospholipid. The class given is biochemical. The settings on record: 14 nM VIIIa, 400 nM factor X. Further details: Normal human plasma factor IX (IXNP) and factor X were isolated as described in Bajaj and Birktoft; from tissue; host or cells: human plasma (factor X); factor VIII obtained from Dr. Leon Hoyer, American Red Cross. Here is the method: as §1, §2, §3
Target sequence in this assay (P00742 183-488 limits assumed, one chain of several): as the sequence (P00742 183-488 limits assumed, one chain of several) above
Target sequence in this assay (P00742 41-179 limits assumed, one chain of several): as the sequence (P00742 41-179 limits assumed, one chain of several) above

Test [6] addresses T3, factor VIIIa (Homo sapiens, UniProt P00451).
T3 construct: purchased Dr. Leon Hoyer (American Red Cross, Rockville, Md.)
T3 sequence (P00451 20-759 limits assumed): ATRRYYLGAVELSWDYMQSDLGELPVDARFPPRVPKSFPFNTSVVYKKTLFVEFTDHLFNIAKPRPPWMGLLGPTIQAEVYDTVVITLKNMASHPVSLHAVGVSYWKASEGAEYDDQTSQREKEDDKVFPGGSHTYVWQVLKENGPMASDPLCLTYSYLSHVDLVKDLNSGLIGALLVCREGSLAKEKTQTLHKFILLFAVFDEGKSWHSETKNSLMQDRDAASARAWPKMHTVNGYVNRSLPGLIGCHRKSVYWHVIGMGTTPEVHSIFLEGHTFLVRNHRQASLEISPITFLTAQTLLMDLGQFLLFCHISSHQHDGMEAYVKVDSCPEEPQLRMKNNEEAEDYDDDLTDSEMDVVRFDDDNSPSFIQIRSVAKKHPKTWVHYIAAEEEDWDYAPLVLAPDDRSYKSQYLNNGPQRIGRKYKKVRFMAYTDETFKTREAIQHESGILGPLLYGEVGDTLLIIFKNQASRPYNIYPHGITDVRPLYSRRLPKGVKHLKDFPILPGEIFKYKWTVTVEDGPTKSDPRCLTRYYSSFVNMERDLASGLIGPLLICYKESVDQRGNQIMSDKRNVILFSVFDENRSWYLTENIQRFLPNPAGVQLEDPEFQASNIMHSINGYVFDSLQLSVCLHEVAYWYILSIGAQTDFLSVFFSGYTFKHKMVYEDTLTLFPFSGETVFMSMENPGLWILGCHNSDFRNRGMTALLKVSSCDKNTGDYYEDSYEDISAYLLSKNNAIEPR
T3 sequence (P00451 1668-2351 limits assumed): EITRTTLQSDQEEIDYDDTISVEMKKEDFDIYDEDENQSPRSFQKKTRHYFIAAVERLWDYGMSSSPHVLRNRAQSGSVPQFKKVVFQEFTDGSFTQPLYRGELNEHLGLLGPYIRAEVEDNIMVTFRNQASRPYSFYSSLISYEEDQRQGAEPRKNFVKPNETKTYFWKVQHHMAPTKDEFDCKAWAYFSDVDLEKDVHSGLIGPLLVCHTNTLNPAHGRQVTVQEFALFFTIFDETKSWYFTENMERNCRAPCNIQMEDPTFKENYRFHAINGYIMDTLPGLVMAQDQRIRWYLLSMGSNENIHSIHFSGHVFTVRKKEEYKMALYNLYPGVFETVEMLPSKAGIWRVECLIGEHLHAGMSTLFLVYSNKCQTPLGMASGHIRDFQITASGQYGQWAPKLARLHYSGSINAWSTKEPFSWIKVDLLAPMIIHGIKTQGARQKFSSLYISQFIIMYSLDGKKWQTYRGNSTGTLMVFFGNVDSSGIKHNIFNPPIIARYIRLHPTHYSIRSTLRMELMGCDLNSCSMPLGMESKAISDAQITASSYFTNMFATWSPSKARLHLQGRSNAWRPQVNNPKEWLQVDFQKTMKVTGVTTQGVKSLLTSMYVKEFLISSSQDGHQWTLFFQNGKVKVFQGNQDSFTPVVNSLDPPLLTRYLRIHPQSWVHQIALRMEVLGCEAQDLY
In words: inhibition of Xa generation by active site-blocked (DEGR) IXa proteins, presence of phospholipid (Kd,app for VIIIa). In kind it is biochemical. Conditions: active site-blocked (DEGR) IXa proteins, 10 μM phospholipid; read-out: Kd, app for interaction with factor VIIIa, PL-plus system. Here is the method: (§4) Apparent Kds of factor VIIIa binding to various active site-blocked factor IXa proteins were determined from inhibition experiments as detailed in Mathur et al., 1997, supra. […] Reactions were carried out for 2 min and the rates of factor X activation were measured as outlined above.
(§5) Various DEGR-ck-inhibited factor IXa proteins were prepared for these experiments as follows. IXNP, IXWT, and each mutant factor IX at 200 μg/ml was activated by factor XIa (2 μg/ml) for 90 min. in TBS, pH 7.4 (0.05 M Tris, 0.15 M NaCl, pH 7.4) containing 5 mM Ca^2+.
(§6) Enzymol. 74, 481–508 given below:
(§7) [formula] where y is the rate of Xa formation in the presence of a given concentration of DEGR-IXa protein represented by x, a is the maximum rate of Xa formation in the absence of DEGR-IXa, and s is the slope factor. Each point was weighted equally and the data were fitted to Equation 1 using the nonlinear regression analysis program obtained from Erithacus Software (GraFit). […] To obtain the Kd,app values for the interaction of DEGR-IXa proteins with factor VIIIa, the following equation was used, as described by Cheng and Prusoff, 1973, Biochem. Pharmacol. 22, 3099–3108 and further discussed by Craig, 1993, Trends Pharmacol. Sci. 6, 68–71.

Test [7] has as its target T3, factor VIIIa. In words: inhibition of Xa generation by active site-blocked (DEGR) IXa proteins, absence of phospholipid (Kd,app for VIIIa). In kind it is biochemical. Conditions: active site-blocked (DEGR) IXa proteins, no phospholipid. The method, then: as §4, §5, §6, §7
Test [8] has as its target T2, factor X. The test is described as follows: factor X activation by IXa proteins, Ca2+ and phospholipid, without VIIIa. The class given is biochemical. Also on record: Normal human plasma factor IX (IXNP) and factor X were isolated as described in Bajaj and Birktoft; from tissue; host or cells: human plasma. Conditions: no VIIIa, 20 nM IXa, 25 μM phospholipid, 100 nM X. The method, then:
as §1
(§8) Factor X activation measurements were made under four experimental regimes. In one, Ca^2+ and phospholipid were present. In this system activation was carried out for 5–15 minutes and the concentration of each IXa protein was 20 nM, phospholipid was 25 μM, and factor X was 100 nM. In the second regime, Ca^2+, phospholipid and factor VIIIa were present. […] In the third regime, only Ca^2+ was present. Here, activation was carried out for 2–20 min and concentration of each IXa protein was 400 nM and factor X was 1 μM. Finally, in the fourth regime, Ca^2+ and VIIIa were present. […]
Target sequence in this assay (P00742 183-488 limits assumed): as the sequence (P00742 183-488 limits assumed, one chain of several) above
Target sequence in this assay (P00742 41-179 limits assumed): as the sequence (P00742 41-179 limits assumed, one chain of several) above

The target in test [9] is T2, factor X. In words: factor X activation by IXa proteins, Ca2+ only. The class given is biochemical. Also on record: Normal human plasma factor IX (IXNP) and factor X were isolated as described in Bajaj and Birktoft; from tissue; host or cells: human plasma. Conditions: 1 μM X, 400 nM IXa, no phospholipid, no VIIIa. The method, then: as §1, §8
Target sequence in this assay (P00742 183-488 limits assumed): as the sequence (P00742 183-488 limits assumed, one chain of several) above
Target sequence in this assay (P00742 41-179 limits assumed): as the sequence (P00742 41-179 limits assumed, one chain of several) above
For test [10] the following is noted: from other studies; cited from earlier work.
Test [11] has as its system factor VIIIa. Conditions: from other studies; cited from earlier work.

T1 sequence (P03951 388-625 limits assumed): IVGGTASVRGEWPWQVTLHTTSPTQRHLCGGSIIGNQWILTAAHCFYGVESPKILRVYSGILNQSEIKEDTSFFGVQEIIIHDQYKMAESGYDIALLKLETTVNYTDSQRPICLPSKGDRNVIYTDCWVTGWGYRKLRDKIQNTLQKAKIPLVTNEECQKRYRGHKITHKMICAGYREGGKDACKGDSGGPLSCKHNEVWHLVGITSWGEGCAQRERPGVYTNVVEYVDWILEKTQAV
T1 sequence (P03951 19-387 limits assumed): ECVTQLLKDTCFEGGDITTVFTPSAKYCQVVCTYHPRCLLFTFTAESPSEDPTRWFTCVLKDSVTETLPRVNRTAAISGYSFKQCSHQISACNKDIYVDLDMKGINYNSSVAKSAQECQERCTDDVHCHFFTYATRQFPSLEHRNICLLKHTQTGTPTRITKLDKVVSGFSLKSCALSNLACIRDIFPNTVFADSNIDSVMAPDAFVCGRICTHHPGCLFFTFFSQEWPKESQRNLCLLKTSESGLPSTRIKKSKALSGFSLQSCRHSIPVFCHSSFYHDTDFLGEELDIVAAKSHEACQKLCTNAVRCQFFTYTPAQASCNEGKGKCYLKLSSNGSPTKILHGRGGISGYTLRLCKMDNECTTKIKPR

In the case of “IXPCEGF1: factor IX in which EGF1 residues 52–85 are replaced by residues 51–92 of protein C”, in test [1], the “rate of activation by factor XIa/Ca2+” value is on record as “readily activated”.

For the substance “IXQ50P: factor IX mutant that lacks the EGF1 domain Ca2+ binding site”, in test [2], the Kd is around 15 nM. Besides, the “rate of activation by factor XIa/Ca2+” value in test [1] was “readily activated”.

Turning to “IXaL330I: activated factor IX mutant L330I”, in [3], the “coagulant activity as compared to IXaNP” value is around 7%. The “X-activation rate, PL-plus system” value in [4] is 0.95 ± 0.07 nM/min. Further, the “X-activation rate, PL-minus system” value in [5] is 0.94 ± 0.03 nM/min.

Regarding “IXaPCEGF1: activated factor IX with EGF1 domain replaced by that of protein C”, the Kd was 5.71 ± 0.82 nM in test [6] and 210 ± 10 nM in test [7] (read-out: Kd, app for interaction with factor VIIIa, PL-minus system). Also, the “Kd, app for interaction with factor VIIIa, PL-minus system” value in test [7] is recorded as “indistinguishable from that of normal IXa”. Also, in [8], the “rate of factor Xa generation” value turned out to be 0.06 nM/min. Further, in [9], the “rate of factor X activation, Ca2+ only” value is given as around 0.48 nM/min.

For “IXaQ50P: activated EGF1 domain mutant Q50P of factor IX”, the “Kd, app for interaction with factor VIIIa, PL-minus system” value in test [7] was “indistinguishable from that of normal IXa”. Besides, the “rate of factor Xa generation” value in test [8] came out at 0.07 nM/min. Also, in [9], the “rate of factor X activation, Ca2+ only” value is recorded as around 0.39 nM/min.

“IXaT335A: activated factor IX mutant T335A”: in [3], the “coagulant activity as compared to IXaNP” value is listed as around 35%. Further, the entries for the “X-activation rate, PL-plus system” value in test [4] and in test [4] (listed as IXaI335A) were 1.92 ± 0.11 nM/min and around 1.9 nM/min, respectively. For the same substance, the “X-activation rate, PL-minus system” value in test [5] turned out to be 1.83 ± 0.18 nM/min.

For the substance “R338A: factor IX R338A mutant described by Chang and coworkers [Protein R338A]”, in test [10], the activity of variant result is listed as “slightly increased activity”. Further, the “factor VIIIa binding / affinity of variant” value in test [11] is reported as “without an impairment in factor VIIIa binding”.

The values above are taken from patent US7109170B2, “Region of factor IXa protease domain that interacts with factor VIIIa and methods therefor” (Saint Louis University, priority 1999, dated 2006).
